Measured values from US12590147.

Key:
[1] = biological target: mix of 3 carriers alone (BSA + OVA + KLH) (bovine; keyhole limpet) (UniProt P02769); assay: monoclonal phage ELISA, negative control coating with carriers alone, replicate 1
[2] = biological target: mix of 3 carriers alone (BSA + OVA + KLH) (bovine; keyhole limpet) (UniProt P02769); assay: monoclonal phage ELISA, negative control coating with carriers alone, replicate 2

mix of 3 carriers alone (BSA + OVA + KLH) (bovine; keyhole limpet), sequence (P02769 25-607, chain 1 of 2): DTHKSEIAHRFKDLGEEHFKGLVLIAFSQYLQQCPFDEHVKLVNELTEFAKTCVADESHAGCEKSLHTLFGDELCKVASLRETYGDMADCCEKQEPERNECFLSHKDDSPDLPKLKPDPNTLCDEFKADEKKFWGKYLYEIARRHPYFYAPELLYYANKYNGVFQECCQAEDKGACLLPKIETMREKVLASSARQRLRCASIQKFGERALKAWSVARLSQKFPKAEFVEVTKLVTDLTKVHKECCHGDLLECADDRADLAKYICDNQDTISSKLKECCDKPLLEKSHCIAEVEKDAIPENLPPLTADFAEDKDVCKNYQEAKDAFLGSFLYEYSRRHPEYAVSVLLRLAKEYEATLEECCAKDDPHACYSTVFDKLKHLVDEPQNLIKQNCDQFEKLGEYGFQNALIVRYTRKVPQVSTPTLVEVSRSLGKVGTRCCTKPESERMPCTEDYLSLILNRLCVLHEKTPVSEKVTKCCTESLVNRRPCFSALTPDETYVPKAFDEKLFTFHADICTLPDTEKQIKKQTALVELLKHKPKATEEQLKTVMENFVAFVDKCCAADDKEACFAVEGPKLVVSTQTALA
mix of 3 carriers alone (BSA + OVA + KLH) (bovine; keyhole limpet), sequence (P01012 2-386, chain 2 of 2, further chain): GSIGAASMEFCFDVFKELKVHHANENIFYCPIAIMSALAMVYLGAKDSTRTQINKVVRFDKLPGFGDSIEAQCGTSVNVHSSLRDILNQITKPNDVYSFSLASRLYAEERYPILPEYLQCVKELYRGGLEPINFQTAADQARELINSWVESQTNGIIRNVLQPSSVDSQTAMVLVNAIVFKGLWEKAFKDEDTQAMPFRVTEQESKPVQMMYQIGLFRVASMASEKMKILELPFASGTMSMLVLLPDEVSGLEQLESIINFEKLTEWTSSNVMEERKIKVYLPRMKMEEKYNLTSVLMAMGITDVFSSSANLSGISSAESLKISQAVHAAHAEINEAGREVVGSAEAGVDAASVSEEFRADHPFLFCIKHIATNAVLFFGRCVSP

B1: R4P1-C1 (phage Fab clone) (Fab, V domains shown)
VH: QVQLQQSGPGLVKPSQTLSLTCAISGDSVSSNSAAWNWIRQSPSRGLEWLGRTYYRSKWYNDYAVSVKSRITINPDTSKNQFSLQLNSVTPEDTAVYYCARDDYDPVGMYAFDIWGQGTLVTVSS
VL: LPVLTQPPSASGTPGQRVTISCSGSSSNIGSNTVNWYQQLPGTAPKLLIYRNTQRPSGVPDRFSGSKSGTSASLAISGLQSEDEADYYCEAWDDSMRGAAFGGGTQLTVL
For B1, the ELISA signal [1] was 0.06 and the ELISA signal [2] was 0.06.
